# Assay results as given in article PMC11231340, “Werner helicase interacting protein 1 contributes to G-quadruplex processing in human cells”.
# T1: GST-WRNIP1 (Homo sapiens, UniProt Q96S55 1-665)
# T1 sequence: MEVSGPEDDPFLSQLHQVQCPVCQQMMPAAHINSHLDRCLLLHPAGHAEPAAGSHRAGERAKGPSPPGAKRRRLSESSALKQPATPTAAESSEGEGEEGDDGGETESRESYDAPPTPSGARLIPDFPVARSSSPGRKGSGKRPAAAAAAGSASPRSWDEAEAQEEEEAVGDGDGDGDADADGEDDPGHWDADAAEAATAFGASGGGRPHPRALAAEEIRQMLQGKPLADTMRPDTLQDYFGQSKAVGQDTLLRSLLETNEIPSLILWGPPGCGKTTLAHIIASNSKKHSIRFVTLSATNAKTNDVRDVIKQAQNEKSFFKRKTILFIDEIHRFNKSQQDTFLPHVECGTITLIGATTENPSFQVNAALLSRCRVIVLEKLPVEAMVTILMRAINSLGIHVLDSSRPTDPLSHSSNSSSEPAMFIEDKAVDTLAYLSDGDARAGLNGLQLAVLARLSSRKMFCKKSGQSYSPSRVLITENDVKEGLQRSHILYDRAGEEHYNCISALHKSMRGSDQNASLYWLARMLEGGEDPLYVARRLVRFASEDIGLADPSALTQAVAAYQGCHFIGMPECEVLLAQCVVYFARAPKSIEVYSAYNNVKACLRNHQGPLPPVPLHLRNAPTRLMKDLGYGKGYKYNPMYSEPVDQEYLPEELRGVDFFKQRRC
# Experiments:
# GST-WRNIP1 [1] = target: T1, GST-WRNIP1; experiment: fluorescence anisotropy; Hill n 0.55; Anisotropy: 10 nM DNA, 50 mM Tris-HCl pH 7.5, 90 mM KCl, 5 mM EDTA, with or without 1 mM ATP and 1.25 mM MgCl2, 25 C; EMSA: 50 nM DNA, 50 mM Tris-HCl pH 7.5, 150 mM KCl, 15 min 25 C, 6% native gel; DNA folded in 25 mM Tris-HCl pH 7.5, 50 mM KCl; details: protein: recombinant; (GST fusion); label: 5' FITC; intramolecular G4 with 3' ssDNA tail of 21 nt
# GST-WRNIP1 [2] = target: T1, GST-WRNIP1; experiment: fluorescence anisotropy; 1 mM ATP; Hill n 0.66; Anisotropy: 10 nM DNA, 50 mM Tris-HCl pH 7.5, 90 mM KCl, 5 mM EDTA, with or without 1 mM ATP and 1.25 mM MgCl2, 25 C; EMSA: 50 nM DNA, 50 mM Tris-HCl pH 7.5, 150 mM KCl, 15 min 25 C, 6% native gel; DNA folded in 25 mM Tris-HCl pH 7.5, 50 mM KCl; details: protein: recombinant; (GST fusion); label: 5' FITC; intramolecular G4 with 3' ssDNA tail of 21 nt
# GST-WRNIP1 [3] = target: T1, GST-WRNIP1; experiment: fluorescence anisotropy; no ATP (ATP comparison series); Hill n 0.72; Anisotropy: 10 nM DNA, 50 mM Tris-HCl pH 7.5, 90 mM KCl, 5 mM EDTA, with or without 1 mM ATP and 1.25 mM MgCl2, 25 C; EMSA: 50 nM DNA, 50 mM Tris-HCl pH 7.5, 150 mM KCl, 15 min 25 C, 6% native gel; DNA folded in 25 mM Tris-HCl pH 7.5, 50 mM KCl; details: protein: recombinant; (GST fusion); label: 5' FITC; intramolecular G4 with 3' ssDNA tail of 21 nt
# GST-WRNIP1 [4] = target: T1, GST-WRNIP1; experiment: fluorescence anisotropy; Hill n 0.88; Anisotropy: 10 nM DNA, 50 mM Tris-HCl pH 7.5, 90 mM KCl, 5 mM EDTA, with or without 1 mM ATP and 1.25 mM MgCl2, 25 C; EMSA: 50 nM DNA, 50 mM Tris-HCl pH 7.5, 150 mM KCl, 15 min 25 C, 6% native gel; DNA folded in 25 mM Tris-HCl pH 7.5, 50 mM KCl; details: protein: recombinant; (GST fusion); label: 5' FITC on strand 1; 21 bp duplex at 3' end of strand 1; 5' ss G4 overhang 21 nt; strand 2 5' TTT overhang
# GST-WRNIP1 [5] = target: T1, GST-WRNIP1; experiment: fluorescence anisotropy; Hill n 0.95; Anisotropy: 10 nM DNA, 50 mM Tris-HCl pH 7.5, 90 mM KCl, 5 mM EDTA, with or without 1 mM ATP and 1.25 mM MgCl2, 25 C; EMSA: 50 nM DNA, 50 mM Tris-HCl pH 7.5, 150 mM KCl, 15 min 25 C, 6% native gel; DNA folded in 25 mM Tris-HCl pH 7.5, 50 mM KCl; details: protein: recombinant; (GST fusion); label: 5' FITC; intramolecular G4 with 3' ssDNA tail
# GST-WRNIP1 [6] = target: T1, GST-WRNIP1; experiment: fluorescence anisotropy; Hill n 1.1; Anisotropy: 10 nM DNA, 50 mM Tris-HCl pH 7.5, 90 mM KCl, 5 mM EDTA, with or without 1 mM ATP and 1.25 mM MgCl2, 25 C; EMSA: 50 nM DNA, 50 mM Tris-HCl pH 7.5, 150 mM KCl, 15 min 25 C, 6% native gel; DNA folded in 25 mM Tris-HCl pH 7.5, 50 mM KCl; details: protein: recombinant; (GST fusion); label: 5' FITC on strand 1; 21 bp duplex at 3' end of strand 1; 5' ss G4 overhang 27 nt; strand 2 5' TTT overhang
# GST-WRNIP1 [7] = target: T1, GST-WRNIP1; experiment: fluorescence anisotropy; Hill n 0.96; Anisotropy: 10 nM DNA, 50 mM Tris-HCl pH 7.5, 90 mM KCl, 5 mM EDTA, with or without 1 mM ATP and 1.25 mM MgCl2, 25 C; EMSA: 50 nM DNA, 50 mM Tris-HCl pH 7.5, 150 mM KCl, 15 min 25 C, 6% native gel; DNA folded in 25 mM Tris-HCl pH 7.5, 50 mM KCl; details: protein: recombinant; (GST fusion); label: 5' FITC
binder,measurement,setting,value
TGAGGGTGGGTAGGGTGGGTGCGTCTGCGGCTGGCTCGAGGC (structured_DNA) [MYC G4 ss (Myc2345)],Kd,GST-WRNIP1 [1],184 ± 36 nM
same,Kd,GST-WRNIP1 [2],183 ± 52 nM
same,Kd,GST-WRNIP1 [3],175 ± 43 nM
MYC G4 partial duplex (structured_DNA) DNA 1: TGAGGGTGGGTAGGGTGGGTGCGTCTGCGGCTGGCTCGAGGC DNA 2: TTTGCCTCGAGCCAGCCGCAGACG,Kd,GST-WRNIP1 [4],108 ± 45 nM
AAGGGTGGGTGTAAGTGTGGGTGGGTGCGTCTGCGGCTGGCTCGAGGC (structured_DNA) [CEB G4 ss (CEB25)],Kd,GST-WRNIP1 [5],65 ± 6 nM
CEB G4 partial duplex (structured_DNA) DNA 1: AAGGGTGGGTGTAAGTGTGGGTGGGTGCGTCTGCGGCTGGCTCGAGGC DNA 2: TTTGCCTCGAGCCAGCCGCAGACG,Kd,GST-WRNIP1 [6],221 ± 44 nM
ACTCCCACCCATCCCACCCACGCAGACGCCGACCGAGCTCCG (ssDNA) [C-rich control],Kd,GST-WRNIP1 [7],3.5 ± 0.511 µM
